According to the supplement of paper PMC12042874:
± gives the uncertainty stated by the source.

Experiment: amyloid nucleation score (Sup35N fusion, yeast selection) (log enrichment); library NNK1; higher = more nucleation; inactive = no reads after selection
Procedure, shortened: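 DiMSum was used to calculate nucleation scores as log enrichment of output over input reads, centred on the mode score of non-aggregating sequences. Sequences with fewer than 100 input reads were not scored. Input and output came from Illumina sequencing of plasmid inserts in psi-negative yeast expressing peptides of 20 random codons fused to Sup35N, induced 24 hours with 100 μM copper sulfate and then grown 7 days at 30°C on medium lacking adenine and uracil.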

Substance	amyloid nucleation score
LSMKNQDTCTFTCVLSHLSL	1.9 ± 0.23
LSMPGTTCIFYYRLFLVLGE	-0.043 ± 0.31
LSPWSKTSIYCNLLPCIVSR	0.571 ± 0.3
LSRHGKVKCKLLATGGLT	0.184 ± 0.45
LSSIATRKHELLNFPV	0.294 ± 0.63
LSSTSV	0.425 ± 0.44
LSTLQQLGKLLNTVWDDLAQ	0.048 ± 0.9
LSVIIII	4.96 ± 0.051
LSWVQSLKACNI	1.45 ± 0.4
LSWYPCWVARSTMALDGYGV	-0.776 ± 0.55
LTKASHVRLNNVGV	0.034 ± 0.6
LTLVNASSSRYEMSLFFQSI	2.53 ± 0.12
LTNATFQLWLLCCDGPLRDM	5.87 ± 0.062
LTQLYLVTSSTWVNYSYLKW	0.742 ± 0.58
LTSCLLPFDPLSNDNYKGVW	1.78 ± 0.65
LTVIVFIMEATIDYYGGRCG	0.959 ± 0.92
LTVMMLGFGHVQCMS	-0.003 ± 0.26
LTYLNMALVCRFFYVFRHDW	0.799 ± 0.57
LVCFHQRVKIVRYCRTGTLT	-0.095 ± 0.61
LVCSIMWNGVRHAPVRCKPT	-0.382 ± 0.47
LVCVSQVYGALDTCGPVSMM	0.379 ± 0.54
LVELNIGTTLCWQMRLRNVG	-0.037 ± 1.7
LVFANSHGFCGKSSLLRVGD	inactive
LVFFCNM	7.824 ± 0.06
LVFSRFLGSVLVNEPSEATR	0.203 ± 1.5

Substance	amyloid nucleation score
LVFTMWLPKRDACPDLTTMM	0.34 ± 0.47
LVGSKSGVTRQRMALRWGGF	-0.285 ± 1.4
LVKWGCQLSVEFVRFNTGFQ	1.74 ± 0.094
LVLQRDIGSACVDCHGVGKA	1.17 ± 0.52
LVMFMNMSLRYNRGLSLVKR	-0.252 ± 0.26
LVNCVVGFLTLVNFWSIHQL	0.206 ± 0.79
LVPSTFHTF	0.149 ± 0.77
LVSMSYSVREDDFISLLWGV	inactive
LVTGSCNQWHGKW	-0.062 ± 0.39
LVTRLALSFAVNFLLGDSCV	0.595 ± 0.48
LVWLY	0.493 ± 0.68
LVWSGLHVGGHSWVGFTGVV	0.241 ± 0.61
LWEIRILLL	-0.994 ± 0.68
LWFQLLMLEFSRNKPIQTVG	-0.138 ± 0.64
LWKLLAAGVGNMCDD	-0.503 ± 0.38
LWNCKIVVWSFIGSVCTTGK	2.29 ± 0.19
LWNGIFELAYLTGVYEFRYG	2.07 ± 0.26
LWPEPVSRSIHSRSH	0.976 ± 0.55
LWSVVYIVIYHLMSNADWST	-0.252 ± 0.41
LWVFGCCIVRMIR	0.047 ± 0.74
LWYKIGFLIWSRTGTLYQGI	0.273 ± 0.3
LWYVAPHVTRSNFEVQGGCG	-0.249 ± 0.34
LYACNFFVFISRPAGMDSAS	5.29 ± 0.079
LYAKLQLLRNKYRVYLFVTS	-0.741 ± 0.55
LYEVNWVSYRMFAVGVRYVL	-0.397 ± 0.36

Substance	amyloid nucleation score
LYFMSISTMAIRSCGVGLHQ	0.235 ± 0.37
LYFRIGYSMLIATDVGFGDL	-2.74 ± 1.8
LYGGNSRFRLSSYRYGMFWN	inactive
LYGYSI	0.778 ± 0.41
LYIYTKFRFVMYVSWCVSDS	0.012 ± 0.62
LYMPSGNIFG	0.973 ± 0.8
LYNPFHIRESMRSRPLVRWV	-0.1 ± 0.32
LYNRIANFGPGYINLWVI	6.375 ± 0.061
LYNVKTGFVRQTDVG	0.106 ± 0.91
LYPKSFYTKYYEWYTSGLIF	0.236 ± 0.57
LYRVSLLGRGGNSMMCDMWL	inactive
LYSDPKVCHN	4.74 ± 0.065
LYSLGTSHEIPCLM	0.442 ± 0.42
LYTHNSELNIKGSKVVHIEW	0.489 ± 0.4
LYTITLLIALALTTEQAPPR	1.67 ± 0.28
LYTKFFEAMWQVWRFERTQR	2.53 ± 0.21
LYYDSLYCHSFLWYGSLVLS	-0.06 ± 0.38
MACVVRVLGVMVHLKMLVGL	-1.11 ± 1
MAFMLWLDYW	0.395 ± 0.32
MAFYSTSLSFSEGGIRCSIY	5.14 ± 0.08
MAGSSMTISVLYSWIP	inactive
MAVFSIDRVVPVVTGGCIAE	0.035 ± 0.46
MAVYFLGFIA	0.604 ± 0.59
MCFLLSYLRWLDYYSYVVVC	0.962 ± 0.42
MCGRSGTFSAILRDREGLNI	0.219 ± 0.65

Substance	amyloid nucleation score
MCILTRRFGLMGWNTHYKS	-0.525 ± 0.94
MCRVHFRNVTFCGALARSVL	-0.751 ± 0.43
MCVMVGLLYGVLLSSFTNNA	0.684 ± 0.23
MDGALSVEFSWGLLSKTRLC	-0.122 ± 0.74
MDGFERWGSYVTWSQLVMIR	-0.837 ± 0.98
MDKEESRCVELSLMSVSVMG	1.35 ± 0.79
MDKSTMVGIKCTMRVSRQMG	-0.158 ± 0.56
MDLHTACVYSKVGMTLDQPS	0.343 ± 0.39
MDLKTY	-0.696 ± 0.46
MDRALQRSWRLGLRPGEGGS	-0.455 ± 0.62
MDVPFLRKN	0.154 ± 0.66
MDWLEYHMSFCSHV	0.07 ± 0.26
MENAGTSVIPRRYIWTPKPV	0.923 ± 0.76
MEPYYVRNSCFCRIRDRNF	-0.21 ± 0.33
MERYCN	-0.148 ± 0.23
MFARLNF	3.98 ± 0.062
MFFVFSYSRS	1.52 ± 0.28
MFGGGWDAKWPPIPCLKKVD	0.308 ± 0.43
MFRNI	0.227 ± 0.26
MFSTKSH	0.543 ± 0.49
MFSTLH	0.178 ± 0.36
MFWQHQLFVESRQNSSFTSF	-0.23 ± 0.63
MGCKAKRAFVEFLSRMEVRP	-0.035 ± 0.22
MGEYSRLSARSGWLDTPVDG	-0.496 ± 0.67
MGFQFNTFCF	8.144 ± 0.062

Substance	amyloid nucleation score
MGGRGGTDCRASMYSSACMG	1.74 ± 0.26
MGGVMAVLFRIMLGVIF	inactive
MGHAGTLCFANNCLNM	7.483 ± 0.059
MGTLDI	inactive
MGVDYARSVW	-0.202 ± 0.76
MGVFRLNHSQTLRTGQSVEF	-1.18 ± 2.1
MGVLKWLATRLDWFKKIMCR	2.3 ± 0.13
MHFIRALIEFH	1.88 ± 0.2
MICKMNYQVRIPINFSYCLN	2.43 ± 0.15
MIIPD	1.14 ± 0.34
MILRVVCHLNVCS	6.921 ± 0.05
MIPKNFLGGNPLQRRESPIC	0.828 ± 0.62
MISGCLRVLMRAGVKHYVFM	0.369 ± 0.93
MIVDNHWHECYSRAS	-1.76 ± 1.4
MIWAEQCVMWPGACVMVIK	4.64 ± 0.09
MIYVGVDISV	2.24 ± 0.28
MKQQAQPVFVWSSAGGGCES	-0.606 ± 0.47
MKRASSLMINFMMPCNFYCG	0.532 ± 0.62
MLFDV	-0.077 ± 0.21
MLGKNSSCESNMEYVFRSCL	0.244 ± 0.23
MLHWLKLIRTIGRFIRFFRC	inactive
MLIKSIFIFSTLLYISMYD	0.786 ± 0.29
MLLEFCKCGVGSIVWCQKFA	4.94 ± 0.11
MLLFSSVITVMFFGTSIHDG	-0.101 ± 1.2
MLRTQQFSLLFEYHVHGEGG	3.75 ± 0.075

Substance	amyloid nucleation score
MLVDIGRC	-1.31 ± 1.6
MLVFYCNRN	2.88 ± 0.22
MMAIIFMCNV	3.05 ± 0.18
MMFSRILCNGDPQGSARWLS	inactive
MMIWNSNSEQVRCIIGMPWL	4.79 ± 0.085
MMLCSYKWVF	0.1 ± 0.24
MMSPR	-0.921 ± 2.4
MNEERVGNLIFCRDSFMSSW	-0.096 ± 0.97
MNKFNCRIMDDSDSALFSIA	0.486 ± 0.4
MNMVCS	1.15 ± 0.58
MNNCKGTI	-0.679 ± 0.79
MPCFCYTCGRVMLVRIRQTR	inactive
MPYLNGHYRH	inactive
MQMSLTDSGGVYVDGLVGYL	-0.239 ± 0.31
MRCGAL	0.2 ± 1.2
MRCKCGLYAHSYSALLGNVE	inactive
MRFAVTD	-0.146 ± 0.23
MRFVIQVLYTGGTKKSSHLM	1.16 ± 0.79
MRISFAITCTVTN	0.248 ± 0.28
MRITILYYLGKQNRSFWWFC	0.108 ± 0.35
MRKTFDAVLNAFFCKALFCY	0.759 ± 0.39
MRSIH	-0.11 ± 0.74
MRSKREMSFMTHEILVCNDA	0.509 ± 0.31
MRVLDTNSGLMTITPFPVHS	-0.574 ± 0.67
MRVVPHVWLTWHEATVVLQV	0.807 ± 0.28

Substance	amyloid nucleation score
MSALTGQKPLVMVGGLCAVG	0.449 ± 0.55
MSKKMQRPRVAAVGFERFGT	-0.174 ± 0.9
MSLMSRDVVMHIGMSWYSRG	4.21 ± 0.12
MSMLLDSDCLRYFSQEVFWV	-0.742 ± 1.4
MSRRWV	-1.01 ± 0.79
MSSNMLSEKWASGTEHVGVV	-0.657 ± 0.69
MTALFGRVSG	-0.134 ± 1.1
MTEQAQ	0.286 ± 1.4
MTGQTCRFEGSFRFMERCRK	0.43 ± 1
MTRVCL	-0.035 ± 0.62
MTSYGSFRKATWNDWISNMS	-0.393 ± 0.41
MTWMPFGPHTAGMMGHLYFG	-0.398 ± 0.64
MTYDGCNSCKHLKSGKLRWC	0.117 ± 0.29
MVFLGCSGLVCERCAGWLAR	5.58 ± 0.11
MVHKWVIFFNRTVCRLMLPV	0.589 ± 0.37
MVHWVILYAADFPIETLNK	inactive
MVRGQVNPNSFNARWY	inactive
MVSNNNLYPF	inactive
MVVFDRRGLSYPVS	0.556 ± 0.52
MVVQRLF	-0.54 ± 0.78
MWELRFVLCLMIHEFRRWHE	-0.056 ± 0.64
MWGTCSYSYLDSCRVTLFMR	2.06 ± 0.2
